Measured values from PMC11723585.

Target: endogenous knock-in V5-Halo-RXRα (human (endogenous in U2OS)) (UniProt P19793)
Chain of UniProt P19793 (P19793 whole entry): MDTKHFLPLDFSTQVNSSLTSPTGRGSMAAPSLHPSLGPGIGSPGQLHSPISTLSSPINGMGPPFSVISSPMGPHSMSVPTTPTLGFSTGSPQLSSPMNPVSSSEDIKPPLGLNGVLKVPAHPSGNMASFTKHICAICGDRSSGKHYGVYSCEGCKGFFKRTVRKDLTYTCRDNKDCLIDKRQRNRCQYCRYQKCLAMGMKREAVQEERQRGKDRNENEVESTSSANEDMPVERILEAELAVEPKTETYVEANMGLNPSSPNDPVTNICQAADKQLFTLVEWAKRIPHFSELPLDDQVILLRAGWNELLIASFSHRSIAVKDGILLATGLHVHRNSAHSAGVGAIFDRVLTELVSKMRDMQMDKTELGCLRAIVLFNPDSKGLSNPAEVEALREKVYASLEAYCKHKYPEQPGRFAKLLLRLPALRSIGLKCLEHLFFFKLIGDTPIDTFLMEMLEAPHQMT

chromatin-bound fraction of DR trajectories (f bound,DR) of RARα^RR-SNAP in Halo-RXRα knock-in U2OS cells: 7.5% | chromatin-bound fraction of PAPA trajectories (f bound,PAPA) of RARα^RR-SNAP in Halo-RXRα knock-in U2OS cells: 11.1%
Substance: RARα^RR-SNAPf-3xFLAG (from UniProt P10276 1-462) (natural protein)
